According to patent US20240317894A1 (BOARD OF REGENTS OF THE UNIVERSITY OF OKLAHOMA, published 2024):

Target: T1, Fms-related tyrosine kinase 3 (FLT3) on FLT3-expressing target cells (human, UniProt P36888 27-993)
T1 sequence (looked up): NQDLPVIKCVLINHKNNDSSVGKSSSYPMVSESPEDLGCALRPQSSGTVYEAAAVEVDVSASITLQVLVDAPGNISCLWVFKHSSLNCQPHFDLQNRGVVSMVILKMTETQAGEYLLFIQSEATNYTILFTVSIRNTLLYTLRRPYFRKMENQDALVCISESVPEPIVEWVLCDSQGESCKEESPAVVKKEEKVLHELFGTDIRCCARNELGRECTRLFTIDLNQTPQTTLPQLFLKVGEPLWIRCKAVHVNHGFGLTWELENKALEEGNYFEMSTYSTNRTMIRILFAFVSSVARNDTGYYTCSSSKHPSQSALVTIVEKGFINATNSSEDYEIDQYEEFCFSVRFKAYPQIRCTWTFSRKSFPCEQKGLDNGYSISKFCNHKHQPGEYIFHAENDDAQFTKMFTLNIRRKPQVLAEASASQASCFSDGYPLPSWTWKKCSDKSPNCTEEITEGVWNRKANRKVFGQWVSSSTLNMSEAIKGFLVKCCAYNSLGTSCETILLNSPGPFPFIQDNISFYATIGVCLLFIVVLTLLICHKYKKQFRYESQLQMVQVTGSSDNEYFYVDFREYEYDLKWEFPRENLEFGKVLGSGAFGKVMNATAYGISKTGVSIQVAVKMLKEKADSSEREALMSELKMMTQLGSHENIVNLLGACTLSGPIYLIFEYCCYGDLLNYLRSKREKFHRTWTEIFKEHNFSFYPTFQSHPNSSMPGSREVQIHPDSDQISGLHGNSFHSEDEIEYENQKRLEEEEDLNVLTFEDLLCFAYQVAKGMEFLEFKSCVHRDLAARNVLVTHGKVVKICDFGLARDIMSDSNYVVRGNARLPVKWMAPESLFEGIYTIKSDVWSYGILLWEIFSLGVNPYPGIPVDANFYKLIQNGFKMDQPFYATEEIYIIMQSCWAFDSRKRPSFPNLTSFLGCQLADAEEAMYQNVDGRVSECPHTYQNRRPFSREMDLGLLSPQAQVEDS
Assay: cell-based or functional assay

B1: FLCAR (chimeric antigen receptor with an FLT3-binding extracellular portion of human FLT3 ligand, CD28 transmembrane and costimulatory regions and a CD3-zeta … (other)
chain: TQDCSFQHSPISSDFAVKIRELSDYLLQDYPVTVASNLQDEELCGGLWRLVLAQRWMERLKTVAGSKMQGLLERVNTEIHFVTKCAFQPPPSCLRFVQTNISRLLQETSEQLVALKPWITRQNFSRCLELQCQGKHLCPSPLFPGPSKPFWVLVVVGGVLACYSLLVTVAFIIFWVRSKRSRLLHSDYMNMTPRRPGPTRKHYQPYAPPRDFAAYRSGSRSADAPAYQQGQNQLYNELNLGRREEYDVLDKRRGRDPEMGGKPRRKNPQEGLYNELQKDKMAEAYSEIGMKGERRRGKGHDGLYQGLSTATKDTYDALHMQALPPR
modifications: partially phosphorylated on tyrosine
With B1 as the binder, how does the “IL-2 expression (quantitative RT-PCR)” value read?
The value was > 5 fold.
